The source of these data is publication PMC13193388 (2025).

The target in this test is purified recombinant HIS epitope-tagged NOTCH3 extracellular domain (human, UniProt Q9UM47 40-1643, glycosylated). Description: SPR.
Sequence of purified recombinant HIS epitope-tagged NOTCH3 extracellular domain (Q9UM47 40-1643): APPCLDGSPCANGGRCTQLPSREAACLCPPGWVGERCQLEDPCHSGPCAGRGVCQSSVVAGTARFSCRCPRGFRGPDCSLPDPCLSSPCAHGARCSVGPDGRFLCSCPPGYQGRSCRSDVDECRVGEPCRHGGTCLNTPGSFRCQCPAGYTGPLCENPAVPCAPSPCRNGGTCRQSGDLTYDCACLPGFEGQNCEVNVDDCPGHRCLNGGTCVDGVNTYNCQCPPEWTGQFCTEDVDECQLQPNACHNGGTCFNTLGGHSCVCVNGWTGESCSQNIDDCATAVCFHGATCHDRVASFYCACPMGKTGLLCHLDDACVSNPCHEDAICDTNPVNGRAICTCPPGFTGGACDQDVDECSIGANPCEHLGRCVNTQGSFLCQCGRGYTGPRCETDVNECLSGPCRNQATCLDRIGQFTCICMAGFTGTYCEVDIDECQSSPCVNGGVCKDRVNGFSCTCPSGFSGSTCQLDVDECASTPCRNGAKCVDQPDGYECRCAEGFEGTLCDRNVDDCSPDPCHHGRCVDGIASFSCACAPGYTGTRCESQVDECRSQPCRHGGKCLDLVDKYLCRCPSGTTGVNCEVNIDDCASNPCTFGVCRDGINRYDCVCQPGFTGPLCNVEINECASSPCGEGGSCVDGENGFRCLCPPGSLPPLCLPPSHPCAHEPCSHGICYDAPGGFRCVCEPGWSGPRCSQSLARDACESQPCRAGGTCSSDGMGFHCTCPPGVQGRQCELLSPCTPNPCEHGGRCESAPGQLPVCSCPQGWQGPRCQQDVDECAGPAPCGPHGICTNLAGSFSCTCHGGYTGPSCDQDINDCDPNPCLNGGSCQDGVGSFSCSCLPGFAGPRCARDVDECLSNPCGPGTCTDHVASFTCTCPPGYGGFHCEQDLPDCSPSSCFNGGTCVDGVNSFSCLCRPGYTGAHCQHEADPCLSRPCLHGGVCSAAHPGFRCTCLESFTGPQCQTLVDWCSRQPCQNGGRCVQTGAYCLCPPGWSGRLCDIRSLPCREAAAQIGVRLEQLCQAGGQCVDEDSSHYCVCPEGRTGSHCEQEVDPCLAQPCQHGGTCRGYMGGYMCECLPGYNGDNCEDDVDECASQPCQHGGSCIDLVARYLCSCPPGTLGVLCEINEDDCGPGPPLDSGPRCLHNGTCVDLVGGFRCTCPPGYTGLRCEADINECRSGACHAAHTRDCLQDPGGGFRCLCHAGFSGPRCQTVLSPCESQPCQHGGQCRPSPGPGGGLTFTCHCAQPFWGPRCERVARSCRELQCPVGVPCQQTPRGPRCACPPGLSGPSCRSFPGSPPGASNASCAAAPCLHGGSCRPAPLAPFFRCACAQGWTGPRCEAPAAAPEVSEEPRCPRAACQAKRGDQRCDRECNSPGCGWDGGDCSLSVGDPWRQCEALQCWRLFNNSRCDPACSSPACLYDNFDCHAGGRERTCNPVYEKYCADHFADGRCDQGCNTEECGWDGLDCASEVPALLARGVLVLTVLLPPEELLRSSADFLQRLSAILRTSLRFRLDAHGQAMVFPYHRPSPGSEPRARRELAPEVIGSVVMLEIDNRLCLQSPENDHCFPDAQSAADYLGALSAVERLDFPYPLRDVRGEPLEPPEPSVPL

In the case of EKYGGGHFADGR [control peptide (EKYGGGHFADGR)], the Kd came out at 1180 nM.

Turning to EKYCADHFADGR [N34 peptide], the dissociation constant Kd is 13.1 nM.
